Reference: publication PMC4756830 (Nucleic Acids Research, 2015)

Molecular target: the molecule itself
Test: SEC-MALS

B1: GabR from Bacillus subtilis with C-terminal His6-tag (natural protein)
chain: MDITITLDRSEQADYIYQQIYQKLKKEILSRNLLPHSKVPSKRELAENLKVSVNSVNSAYQQLLAEGYLYAIERKGFFVEELDMFSAEEHPPFALPDDLKEIHIDQSDWISFSHMSSDTDHFPIKSWFRCEQKAASRSYRTLGDMSHPQGIYEVRAAITRLISLTRGVKCRPEQMIIGAGTQVLMQLLTELLPKEAVYAMEEPGYRRMYQLLKNAGKQVKTIMLDEKGMSIAEITRQQPDVLVTTPSHQFPSGTIMPVSRRIQLLNWAAEEPRRYIIEDDYDSEFTYDVDSIPALQSLDRFQNVIYMGTFSKSLLPGLRISYMVLPPELLRAYKQRGYDLQTCSSLTQLTLQEFIESGEYQKHIKKMKQHYKEKRERLITALEAEFSGEVTVKGANAGLHFVTEFDTRRTEQDILSHAAGLQLEIFGMSRFNLKENKRQTGRPALIIGFARLKEEDIQEGVQRLFKAVYGHKKIPVTGD
Q: With B1 as the protein, how does the “stoichiometry N” value read?
A: 2
